Assay results from patent publication US11156615B2 (priority 2015, dated 2021).

Tests used:
[1] = Thermostability: mid-point thermal denaturation temperature (Tm) from temperature-dependent fluorescence (Roche LightCycler); format: physicochemical; conditions: for apoTm: Acrylodan conjugate, apo-protein
Description: Protein (un)folding is monitored by binding of SYPRO to the unfolded state as a function of temperature. Fluorescence intensity increases upon binding of SYPRO by the unfolded state.
Panels A-C: ttGBP182C.2.0-Imm0; Panels D-F: ttGBP182C.2.0-Imm1 (see FIG. 13). (A) Solution (Tm=347.6K). (B) Immobilized on Nickel-nitriloacetic acid (Ni-NTA) beads (Tm=346.7K). (C) Reconstituted, desiccated Ni-NTA beads (Tm=347.6K). (D) Fluorescence response of ttGGBP5.2 Imm1 immobilized on NHS-functionalized agarose beads. Data was collected on a Roche LightCycler real-time PCS instrument, recording emission intensities at 488 nm and 510 nm as a function of temperature in a 384-well microtiter plate. […] Temperature melts of twelve different wells. Apo protein thermostability as reported by the denaturation mid-point temperature is 349 K, similar to the protein free in solution. […] (F) Representative Langmuir ligand-binding curve extracted from the three-dimensional data.
Temperatures were advanced in 1K steps. […] Under these experimental photobleaching was not observed.

[2] = Glucose binding: isothermal fluorescence titrations, ratiometric (appKd) and monochromatic (trueKd) fits; conditions: for Kd: glucose
Description: 2 For a single glucose-binding site, the fractional saturation is given by
[formula] where ^apoIλ2 and ^satIλ2 are the emission intensities of the monochromatic signal at wavelength λ2 of the ligand-free and ligand-bound protein, respectively.

[3] = Galactose binding: isothermal fluorescence titrations of conjugates; conditions: read-out: Galactose trueKd; Acrylodan conjugate; monochromatic titration curves; room temperature

Q: With “ecGGBP: glucose-galactose binding protein from Escherichia coli, SEQ ID NO: 1 [reference compound]” as the molecule, how does the “mid-point thermal denaturation temperature (Tm)” value ([1]; GGBP homologs) read?
A: Its value is 322 K.

B1: ttGGBP182C.2.0⋅Acrylodan: Acrylodan conjugate of ttGGBP W182C with Q148E+R91K double mutation (SEQ ID NO: 88) (conjugate)
chain: MKQLNIGVAIYKFDDTFMTGVRNAMTAEAQGKAKLNMVDSQNSQPTQNDQVDLFITKKMNALAINPVDRTAAGTIIDKAKQANIPVVFFNKEPLPEDMKKWDKVYYVGAKAEQSGILQGQIMADYWKAHPEADKNHDGVMQYVMLMGEPGHQDAILRTQYSIQTVKDAGIKVQELAKDYANCDRVTAHDKMAAWLSSFGDKIEAVFANNDDMALGAIEALKSAGYFTGNKYIPVVGVDATAPGIQAIKDGTLLGTVLNDAKNQAKATFNIAYELAQGITPTKDNIGYDITDGKYVWIPYKKITKDNISDAEQGGSHHHHHH
modifications: Acrylodan conjugate; ttGGBP182C.2.0 (affinity-tuning mutant, 182C background (Table 6) with signal peptide replaced with M and GGSHHHHHH at C-terminus)
Q: Which results are given for B1?
A: Kd ([2]; fit of ratiometric emission signal (figure legends), read-out: appKd): 4.5 mM; Kd ([2]; monochromatic fits at 475 nm and 545 nm (FIG. 11), read-out: trueKd): 6 mM; decrease in glucose affinity ([2]; in ttGGBP182C⋅Acrylodan): 2.6 fold

B2: ttGGBP182C: ttGGBP cys mutant, SEQ ID NO: 61 (protein)
chain: MKQLNIGVAIYKFDDTFMTGVRNAMTAEAQGKAKLNMVDSQNSQPTQNDQVDLFITKKMNALAINPVDRTAAGTIIDKAKQANIPVVFFNREPLPEDMKKWDKVYYVGAKAEQSGILQGQIMADYWKAHPEADKNHDGVMQYVMLMGQPGHQDAILRTQYSIQTVKDAGIKVQELAKDYANCDRVTAHDKMAAWLSSFGDKIEAVFANNDDMALGAIEALKSAGYFTGNKYIPVVGVDATAPGIQAIKDGTLLGTVLNDAKNQAKATFNIAYELAQGITPTKDNIGYDITDGKYVWIPYKKITKDNISDAEQGGSHHHHHH
modifications: ttGGBP182C (ttGGBP cys mutant with signal peptide replaced with M and GGSHHHHHH at C-terminus)
Q: For B2, which apoTm [1] is on record?
A: The apoTm was 347 K.

Q: What about the Kd [3] of the same molecule?
A: The Kd was 3.3 mM.

B3: ttGGBP182C.2.7: affinity-tuning mutant, 182C background, SEQ ID NO: 94 (protein)
chain: MKQLNIGVAIYKFDDTFMTGVRNAMTAEAQGKAKLNMVDSQNSQPTQNDQVDLFITKKMNALAINPVDRTAAGTIIDKAKQANIPVVFFNKEPLPEDMKKWDKVYYVGAKAEQSGILQGQIMADYWKAHPEADKNHDGVMQYVMLMGEPGFQDAILRTQYSIQTVKDAGIKVQELAKDYANCDRVTAHDKMAAWLSSFGDKIEAVFANNDDMALGAIEALKSAGYFTGNKYIPVVGVDATAPGIQAIKDGTLLGTVLNDAKNQAKATFNIAYELAQGITPTKDNIGYDITDGKYVWIPYKKITKDNISDAEQGGSHHHHHH
modifications: ttGGBP182C.2.7 (affinity-tuning mutant, 182C background (Table 6) with signal peptide replaced with M and GGSHHHHHH at C-terminus)
Q: Which apoTm [1] does the source give for B3 here?
A: The apoTm was 346 K.

B4: ttGGBP182C.2.9: affinity-tuning mutant, 182C background, SEQ ID NO: 96 (protein)
chain: MKQLNIGVAIYKFDDTFMTGVRNAMTAEAQGKAKLNMVDSQNSQPTQNDQVDLFITKKMNALAINPVDRTAAGTIIDKAKQANIPVVFFNKEPLPEDMKKWDKVYYVGAKAEQSGILQGQIMADYWKAHPEADKNHDGVMQYVMLMGEPGHQDFILRTQYSIQTVKDAGIKVQELAKDYANCDRVTAHDKMAAWLSSFGDKIEAVFANNDDMALGAIEALKSAGYFTGNKYIPVVGVDATAPGIQAIKDGTLLGTVLNDAKNQAKATFNIAYELAQGITPTKDNIGYDITDGKYVWIPYKKITKDNISDAEQGGSHHHHHH
modifications: ttGGBP182C.2.9 (affinity-tuning mutant, 182C background (Table 6) with signal peptide replaced with M and GGSHHHHHH at C-terminus)
Q: With B4 as the molecule, how does the apoTm [1] read?
A: The apoTm was 345 K.
